We go through 15 molecules from publication PMC5180085.

Data set [1] concerns the target T1, XPF (truncated);ERCC1 (truncated) (human;human, UniProt Q92889;P07992 640-916;93-297, |).
T1 sequence 1: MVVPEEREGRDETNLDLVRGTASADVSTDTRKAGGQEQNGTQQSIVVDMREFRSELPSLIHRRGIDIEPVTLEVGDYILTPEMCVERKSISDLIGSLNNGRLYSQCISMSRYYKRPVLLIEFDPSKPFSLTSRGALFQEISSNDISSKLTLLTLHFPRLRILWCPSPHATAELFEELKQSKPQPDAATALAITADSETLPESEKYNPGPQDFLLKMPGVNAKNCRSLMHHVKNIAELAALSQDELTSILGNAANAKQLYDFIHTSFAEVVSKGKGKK
T1 sequence 2: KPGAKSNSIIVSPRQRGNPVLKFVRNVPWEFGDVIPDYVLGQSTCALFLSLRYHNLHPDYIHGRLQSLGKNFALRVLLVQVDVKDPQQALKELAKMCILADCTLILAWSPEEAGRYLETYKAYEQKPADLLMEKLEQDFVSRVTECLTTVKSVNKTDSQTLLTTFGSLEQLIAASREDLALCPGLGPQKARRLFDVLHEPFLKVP
As to the kind of experiment: fluorescence anisotropy; mwPIFE, room temp, 30 min: BamHI 10 mM Tris-HCl pH 8, 100 mM KCl, 0.02% Triton X-100, 0.1 mg/ml BSA, 5 mM EDTA/MgCl2/CaCl2; Ku 35 mM Tris-Cl pH 7.9, 5.5% glycerol, 150 mM KCl, 1 mM EDTA, 0.1 mM DTT, 1.5 mM imidazole; XPF/ERCC1 10 mM Tris-Cl pH 8, 10 mM NaCl. FA: 10 mM Tris-HCl pH 8, 10 mM NaCl, 10% glycerol, 1 mM TCEP, 50 nM DNA, 25 C. Particulars: protein: recombinant;recombinant, tags: none;GST-His6 N-terminal, removed by TEV, copies: 1;1.

The target in data set [2] is T2, BamHI restriction endonuclease (UniProt P23940 1-213).
T2 sequence: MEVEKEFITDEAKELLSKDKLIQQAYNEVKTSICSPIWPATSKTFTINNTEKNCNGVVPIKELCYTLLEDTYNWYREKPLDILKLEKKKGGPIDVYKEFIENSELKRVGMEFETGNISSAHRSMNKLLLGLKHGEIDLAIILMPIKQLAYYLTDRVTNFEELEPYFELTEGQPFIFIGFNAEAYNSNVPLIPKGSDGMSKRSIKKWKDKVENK
As to the kind of experiment: mwPIFE; 5 mM Ca2+; mwPIFE, room temp, 30 min: BamHI 10 mM Tris-HCl pH 8, 100 mM KCl, 0.02% Triton X-100, 0.1 mg/ml BSA, 5 mM EDTA/MgCl2/CaCl2; Ku 35 mM Tris-Cl pH 7.9, 5.5% glycerol, 150 mM KCl, 1 mM EDTA, 0.1 mM DTT, 1.5 mM imidazole; XPF/ERCC1 10 mM Tris-Cl pH 8, 10 mM NaCl. FA: 10 mM Tris-HCl pH 8, 10 mM NaCl, 10% glycerol, 1 mM TCEP, 50 nM DNA, 25 C. Conditions: protein: commercial; chain copies: 2; label: 5' biotin strand 1; 5' Cy3 strand 2; blunt.

Data set [3] addresses T3, Ku70;Ku80 (human;human, UniProt P12956;P13010 1-609;1-732, |). In words: mwPIFE; mwPIFE, room temp, 30 min: BamHI 10 mM Tris-HCl pH 8, 100 mM KCl, 0.02% Triton X-100, 0.1 mg/ml BSA, 5 mM EDTA/MgCl2/CaCl2; Ku 35 mM Tris-Cl pH 7.9, 5.5% glycerol, 150 mM KCl, 1 mM EDTA, 0.1 mM DTT, 1.5 mM imidazole; XPF/ERCC1 10 mM Tris-Cl pH 8, 10 mM NaCl. FA: 10 mM Tris-HCl pH 8, 10 mM NaCl, 10% glycerol, 1 mM TCEP, 50 nM DNA, 25 C. Particulars: protein: recombinant;recombinant, tags: ;, copies: 1;1, label: 5' biotin strand 1, blunt.

The target of data set [4] is T3, Ku70;Ku80. The description is as above. Particulars: protein: recombinant;recombinant; tags: ;; copies: 1;1; label: 5' biotin strand 1; 5' Cy3 strand 2; blunt.
Data set [5] deals with T2, BamHI restriction endonuclease. As to the kind of experiment: competition; Ca2+; mwPIFE, 1-10x excess; mwPIFE, room temp, 30 min: BamHI 10 mM Tris-HCl pH 8, 100 mM KCl, 0.02% Triton X-100, 0.1 mg/ml BSA, 5 mM EDTA/MgCl2/CaCl2; Ku 35 mM Tris-Cl pH 7.9, 5.5% glycerol, 150 mM KCl, 1 mM EDTA, 0.1 mM DTT, 1.5 mM imidazole; XPF/ERCC1 10 mM Tris-Cl pH 8, 10 mM NaCl. FA: 10 mM Tris-HCl pH 8, 10 mM NaCl, 10% glycerol, 1 mM TCEP, 50 nM DNA, 25 C. Particulars: protein: commercial; chain copies: 2; blunt.

The target in data set [6] is T3, Ku70;Ku80. In words: mwPIFE; internal Cy3, PIFE falls with distance from free end; mwPIFE, room temp, 30 min: BamHI 10 mM Tris-HCl pH 8, 100 mM KCl, 0.02% Triton X-100, 0.1 mg/ml BSA, 5 mM EDTA/MgCl2/CaCl2; Ku 35 mM Tris-Cl pH 7.9, 5.5% glycerol, 150 mM KCl, 1 mM EDTA, 0.1 mM DTT, 1.5 mM imidazole; XPF/ERCC1 10 mM Tris-Cl pH 8, 10 mM NaCl. FA: 10 mM Tris-HCl pH 8, 10 mM NaCl, 10% glycerol, 1 mM TCEP, 50 nM DNA, 25 C. Conditions: protein: recombinant;recombinant; tags: ;; copies: 1;1; label: 5' biotin-TEG strand 1; 3' biotin-TEG strand 2; iCy3; blunt; one end free.

The target of data set [7] is T3, Ku70;Ku80. As to the kind of experiment: mwPIFE; internal Cy3, lower PIFE than terminal; mwPIFE, room temp, 30 min: BamHI 10 mM Tris-HCl pH 8, 100 mM KCl, 0.02% Triton X-100, 0.1 mg/ml BSA, 5 mM EDTA/MgCl2/CaCl2; Ku 35 mM Tris-Cl pH 7.9, 5.5% glycerol, 150 mM KCl, 1 mM EDTA, 0.1 mM DTT, 1.5 mM imidazole; XPF/ERCC1 10 mM Tris-Cl pH 8, 10 mM NaCl. FA: 10 mM Tris-HCl pH 8, 10 mM NaCl, 10% glycerol, 1 mM TCEP, 50 nM DNA, 25 C. Particulars: protein: recombinant;recombinant; tags: ;; copies: 1;1; label: 5' biotin-TEG strand 1; 3' biotin-TEG strand 2; iCy3; blunt; one end free.

T3 sequence (P12956 whole entry, chain 1 of 2): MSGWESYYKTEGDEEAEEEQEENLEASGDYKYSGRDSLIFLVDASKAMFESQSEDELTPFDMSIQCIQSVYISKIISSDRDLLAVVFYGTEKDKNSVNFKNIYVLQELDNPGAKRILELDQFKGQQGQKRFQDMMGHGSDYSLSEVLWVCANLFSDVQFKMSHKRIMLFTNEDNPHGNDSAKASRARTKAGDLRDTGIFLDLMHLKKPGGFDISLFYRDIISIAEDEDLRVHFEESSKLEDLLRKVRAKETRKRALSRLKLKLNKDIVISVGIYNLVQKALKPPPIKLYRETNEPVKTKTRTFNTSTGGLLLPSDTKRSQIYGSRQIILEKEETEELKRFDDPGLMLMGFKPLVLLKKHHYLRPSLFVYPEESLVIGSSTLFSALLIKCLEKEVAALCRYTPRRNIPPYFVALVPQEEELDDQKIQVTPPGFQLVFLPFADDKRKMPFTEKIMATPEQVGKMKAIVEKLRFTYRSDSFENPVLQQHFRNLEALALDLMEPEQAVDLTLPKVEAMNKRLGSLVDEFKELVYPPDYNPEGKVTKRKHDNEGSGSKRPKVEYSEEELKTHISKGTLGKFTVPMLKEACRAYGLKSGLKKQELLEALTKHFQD
T3 sequence (P13010 whole entry, chain 2 of 2): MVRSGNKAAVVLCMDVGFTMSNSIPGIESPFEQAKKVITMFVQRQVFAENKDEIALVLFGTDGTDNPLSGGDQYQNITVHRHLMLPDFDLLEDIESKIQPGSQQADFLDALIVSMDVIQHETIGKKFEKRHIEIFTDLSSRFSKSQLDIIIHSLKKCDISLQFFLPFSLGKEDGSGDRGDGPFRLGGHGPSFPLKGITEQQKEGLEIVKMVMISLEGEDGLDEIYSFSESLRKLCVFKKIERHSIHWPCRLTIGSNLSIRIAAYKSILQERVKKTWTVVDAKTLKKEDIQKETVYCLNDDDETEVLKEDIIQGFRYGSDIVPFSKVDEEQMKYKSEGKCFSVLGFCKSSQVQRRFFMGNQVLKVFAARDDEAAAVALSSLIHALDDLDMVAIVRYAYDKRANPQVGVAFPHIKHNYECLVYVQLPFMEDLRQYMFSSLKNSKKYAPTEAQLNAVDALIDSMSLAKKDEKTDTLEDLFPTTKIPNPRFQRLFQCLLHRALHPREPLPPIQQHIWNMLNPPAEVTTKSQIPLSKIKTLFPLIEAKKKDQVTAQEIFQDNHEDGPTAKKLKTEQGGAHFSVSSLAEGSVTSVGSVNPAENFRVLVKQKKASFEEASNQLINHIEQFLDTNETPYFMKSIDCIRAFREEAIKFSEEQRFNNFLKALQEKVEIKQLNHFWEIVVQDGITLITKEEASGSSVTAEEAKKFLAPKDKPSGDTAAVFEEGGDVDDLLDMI

B1: 10ds (dsDNA)
DNA 1: CAGCGCTCGG
DNA 2: CCGAGCGCT
The Kd is a measure of binding affinity in units of concentration. With B1, the dissociation constant (Kd) in data set [1] (5' overhang 1 nt on strand 1 as printed (meant blunt)) was 4750 ± 800 nM.

B2: Btn_25BamHI1_f/Cy3_25BamHI1_r (dsDNA)
DNA 1: CACAACGACCACCTAGATGGATCCA
DNA 2: TGGATCCATCTAGGTGGTCGTTGTG
For the molecule B2, the binding result in data set [2] is given as “binds”.

B3: Btn_14_f/Cy3_14_r (dsDNA)
DNA 1: CCTAGATAGAGCCA
DNA 2: TGGCTCTATCTAGG
With B3, the binding signal in data set [3] is approximately 50 % PIFE.

B4: Btn_15_f/Cy3_15_r (dsDNA)
DNA 1: ACCTAGATAGAGCCA
DNA 2: TGGCTCTATCTAGGT
For B4, the dissociation constant (Kd) in data set [4] is 10 ± 5 nM. In addition, the binding signal in data set [3] (5' Cy3 strand 2) was approximately 50 % PIFE.

B5: Btn_13_f/Cy3_13_r (dsDNA)
DNA 1: CTAGATAGAGCCA
DNA 2: TGGCTCTATCTAG
Take B5: in data set [3], the binding signal is approximately 50 % PIFE.

B6: Btn_11_f/Cy3_11_r (dsDNA)
DNA 1: AGATAGAGCCA
DNA 2: TGGCTCTATCT
Regarding B6, in data set [3], the binding signal was 7 % PIFE.

B7: scr competitor (no BamHI site) (dsDNA)
DNA 1: CCGTCCAACAGCGAGGCTGATTAAAGAATTCG
DNA 2: CGAATTCTTTAATCAGCCTCGCTGTTGGACGG
With B7, the binding result in data set [5] is on record as “no binding”.
For CAGCGCTCGGTTTTTTTTTTTTTTTTTTTTCCGAGCGCTG (structured_DNA) [HP (stem-loop)], the equilibrium dissociation constant (Kd) in data set [1] (hairpin) was determined as 640 ± 100 nM.

B8: BtnT_15_Cy3_60 (internal Cy3 60 nt from free end) (dsDNA)
DNA 1: TTGCATCCTTCACAACGACCACCTAGATAGAGCCAAGCAGTTTACGTACCGTCATTCCCTTCCACGTCATCGAGC
DNA 2: GCTCGATGACGTGGAAGGGAATGACGGTACGTAAACTGCTTGGCTCTATCTAGGTGGTCGTTGTGAAGGATGCAA
modifications: internal Cy3 after nt 15 of strand 1
B8: the binding result in data set [6] is “binds”.

B9: B-GC competitor (substitutions outside site) (dsDNA)
DNA 1: CACAACGCCGGATCCGGCCTAGAT
DNA 2: ATCTAGGCCGGATCCGGCGTTGTG
For B9, the binding result in data set [5] was “binds”.

B10: Btn_12_f/Cy3_12_r (dsDNA)
DNA 1: TAGATAGAGCCA
DNA 2: TGGCTCTATCTA
Regarding B10, the binding signal in data set [3] was found to be 20 % PIFE.

B11: Y (splayed arm) (structured_DNA)
DNA 1: CAGCGCTCGGTTTTTTTTTT
DNA 2: TTTTTTTTTTCCGAGCGCTG
For B11, the equilibrium dissociation constant (Kd) in data set [1] (fork 1:2, 10 bp duplex with two T10 arms) was found to be 810 ± 100 nM.

B12: B-GC* competitor (one base changed in BamHI site) (dsDNA)
DNA 1: CACAACGCCTGATCCGGCCTAGAT
DNA 2: ATCTAGGCCGGATCAGGCGTTGTG
With B12, the binding result in data set [5] is “no binding”.

B13: C_f/C_r (no BamHI site) (dsDNA)
DNA 1: CACAACGACCACCTAGATAGAGCCAAGCAGTTTACGTACCGTCATTCCCTTCCACGTCATCGAGCTACCGTCGTC
DNA 2: GACGACGGTAGCTCGATGACGTGGAAGGGAATGACGGTACGTAAACTGCTTGGCTCTATCTAGGTGGTCGTTGTG
In the case of B13, in data set [2], the binding result is “no binding”.

B14: BtnT_15_Cy3_15 (internal Cy3 15 nt from free end) (dsDNA)
DNA 1: TTGCATCCTTCACAACGACCACCTAGATAG
DNA 2: CTATCTAGGTGGTCGTTGTGAAGGATGCAA
modifications: internal Cy3 after nt 15 of strand 1
Consider B14, for which the binding result in data set [7] was “binds”.
